Data from the nanobody polyreactivity screen of Harvey et al. (2022).

Test: yeast display, Sf9 membrane polyspecificity reagent, FACS + sequencing; frameworks hold sequencing errors
Summary of the method: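 Galactose-induced (36–48 hours) yeast carrying a synthetic nanobody display library were exposed to 10% biotinylated, detergent-solubilized Sf9 membrane reagent at 4 °C for 1 hour. FACS followed streptavidin microbead enrichment, using low and high (top ~1%) gates for expression (anti-HA) and reagent binding (streptavidin). Colony PCR, MiSeq 2 × 250 sequencing and CDR-length filtering followed. Labels for polyreactivity reflect the gate of origin.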

Row | Sequence | polyreactivity (PSR sort gate)
1 | QVQLVESGGGLVQAGGSLRLSCAASGRTFSRYAMGWYRQAPGKERELVAAISWSGGTTHYADSVKGRFTISRDNAKNTVYLQMNSLKPEDTAVYYCNKLRQIEFWGQGTQVTVSS | high polyreactivity
2 | QVQLVESGGGLVQAGGSLRLSCAASGRTFSTYAMGWYRQAPGKERELVAAIDSGGGSTYYADSVKGRFTISRDNAKNTVYLQMNSLKPEDTAVYYCARDHYAPLARLRYDYWGQGTQVTVSS | low polyreactivity
3 | QVQLVESGGGLVQAGGSLRLSCAASGRTFSTYAMGWYRQAPGKERELVAAITRRGGSTYYADSVKGRFTISRDNAKNTVYLQMNSLKPEDTAVYYCARENPGDSYYDYWGQGTQVTVSS | low polyreactivity
4 | QVQLVESGGGLVQAGGSLRLSCAASGRTFSTYVMGWYRQAPGKEREFVAAISTGGGSTYYADSVKGRFTISRDNAKNTVYLQMNSLKPEDTAVYYCAARLKWGWPTYDYWGQGTQVTVSS | high polyreactivity
5 | QVQLVESGGGLVQAGGSLRLSCAASGRTFSVNAMGWYREAPGKEREFVAGISYSGNTYYADSVKGRVTISRDNAKKTAYLQMNSLKPEDTAVYYCAARRGYNDGYWGQGTQVTVSS | high polyreactivity
6 | QVQLVESGGGLVQAGGSLRLSCAASGRTFSVNAMGWYRQAPGKERELVAAISWDGGSTYYADSVKGRFTISRDTAKNTVYLQMNSLKPEDTAVYYCNKDLYYAYDYWGQGTQVTVSS | low polyreactivity
7 | QVQLVESGGGLVQAGGSLRLSCAASGRTFSVNAMGWYRQAPGKERELVATITWSGSSTSYADSVKGRFTISRDNAKNSVDLQMNSLTPEDTAVYYCAADLWTLIYLTDTYGDWGQGTQVTVSS | low polyreactivity
8 | QVQLVESGGGLVQAGGSLRLSCAASGRTFSVNDMGWYRQAPGKERELVAAISFSGGSTYYADSVKGRFTISRDNAKNTVYLQMNSLKPEDTAVYYCAAEAYPVRRLNLPGYDYWGQGTQVTVSS | high polyreactivity
9 | QVQLVESGGGLVQAGGSLRLSCAASGRTFSVYAMGWYRQAPGKERELVAVIRGRGGRTYYADSVKGRFTISRDNAKNTVYLQMNSLKPEDTAVYYCNAVGQIVYGKQYDYWGQGTQVTVSS | high polyreactivity
10 | QVQLVESGGGLVQAGGSLRLSCAASGRTFSVYTMGWYRQAPGKERELVAVISSGGGTDYADSVKGRFTISRDNAKNTVYLQMNSLKPEDTAVYYCAAELRYYLYDVVYIVTYDYWGQGTQVTVSS | low polyreactivity
11 | QVQLVESGGGLVQAGGSLRLSCAASGRTFSWNTMGWYRQAPGKEMELVATITWSGTSTYYADSVKGRFTISRDNAKNTDYLQMNSLKPEDTAVYYCAKRRLFPYTISRYDYWGQGTQVTVSS | high polyreactivity
12 | QVQLVESGGGLVQAGGSLRLSCAASGRTFSWYAMGWYRPAPGQERELVAAITYSGGNTYYADSVKGRFTISRDNAKNTVYLQMNSLKPEDTAVYYCAKYGVTGQGSWSQRMGYWGQGTQVTVSS | high polyreactivity
13 | QVQLVESGGGLVQAGGSLRLSCAASGRTFSWYAMGWYRQAPGKERELVAAITRDGGNTYYADSVKGRFTISRDNAKNTVYLQMNSLKPEDTAVYYCAAAPTTGKRPGYYYWGQGTQVTVSS | high polyreactivity
14 | QVQLVESGGGLVQAGGSLRLSCAASGRTFSYYAKGWYRQAPGKESELVSAIRVSGGITYYADSVKGRFTISRDNAKNTVYLQMNTLKPEDTAVYYCNAGVDFIGGRYLTYVYWGQGTQVTVSW | low polyreactivity
15 | QVQLVESGGGLVQAGGSLRLSCAASGRTFSYYAMGWYIQAPGKERELVAAINSSGGRTYYADSVKGRFTISRDNAKNTVYLQMNSLKPEDTAVYYCAARSYSTSSHHGYWGQGTQVTVSS | high polyreactivity
16 | QVQLVESGGGLVQAGGSLRLSCAASGRTFSYYAMGWYRQAHGKERELVAAITSSGGRTTYADSVKGRFTISRDNAKNTVYLQMNSLKPEDTAVYYCNVVRWTLKYGYWGQGTQVTVSS | high polyreactivity
17 | QVQLVESGGGLVQAGGSLRLSCAASGRTFSYYAMGWYRQAPGKEREFVAAISSTGTSTYYADSVKGRFTISRDNAKNTVYLQMNSLKPEDTAVYYCNARVATYRLHSKFYYWGQGTQVTVSS | high polyreactivity
18 | QVQLVESGGGLVQAGGSLRLSCAASGRTFSYYAMGWYRQAPGKERELVAAISYSGGRTYYADSVKGRFTISRDNAKNTVYIQMNSLKPEDTAVYYCAPVKSRPQYGYGYWVQGTQVTVSS | high polyreactivity
19 | QVQLVESGGGLVQAGGSLRLSCAASGRTFSYYAMGWYRQAPGKERELVAAITSGGGRTYYADSVKGRFTISRDNAKNTVYLQMNSLKPEDTAVYYCNALSTLYNGYDYWGQGTQVTVSS | high polyreactivity
20 | QVQLVESGGGLVQAGGSLRLSCAASGRTFSYYAMRWYRQAPGKERELVAAITSGGSTYYADSVKGRFTISRDNAKNTVYLQMNSLKPEDTAVYYCAKYQSYGPVPFGRGYGHYYWGQGTQVTVSS | high polyreactivity
21 | QVQLVESGGGLVQAGGSLRLSCAASGRTFSYYARGWYRQAPGKEREFVAAISSSGGSTNYADSVKGRFTISRDNAKNTVYLQMNSLKPEDTAVYYCNAGSGYTGVYLWYYWRYDYWGQGTQVTVSS | low polyreactivity
22 | QVQLVESGGGLVQAGGSLRLSCAASGRTFSYYTMGWYRQAPGKERELVARISNRGTNTYYADSVKGRFTISRDNAKNTVYLQMNSLKPEDTAVYYCAATQPYWWAYRYDYWGQGTQVTVSS | low polyreactivity

Row | Sequence | polyreactivity (PSR sort gate)
23 | QVQLVESGGGLVQAGGSLRLSCAASGRTFSYYTMGWYRQATGKERELVARISNRGTNTYYADSVKGRFTISRDNAKITVYLPMNSLKQEDTAVYYCDKFYYTSIVGYDSWGQGTQVTVSS | low polyreactivity
24 | QVQLVESGGGLVQAGGSLRLSCAASGRTFTAYAMGWYRQAPGKERELVARITSVDSTNYADSVKGRFTISRDNAKNTVYLHMYSLKPDDTAVYYCNATFGYPFVDYDDYWGQVTQVTVSS | low polyreactivity
25 | QVQLVESGGGLVQAGGSLRLSCAASGRTFTEYAMGWYRQAPGKERELGAGIDSGSGSTYYADSVKGRFTISRDYAKNTVYLQMNSLHPEDTAVYYCAARDVWSPYDTDVDYWGQGTQVTVSS | low polyreactivity
26 | QVQLVESGGGLVQAGGSLRLSCAASGRTFTFNVMGWYRQAPGKERELVAVITGGDDTYYADSVKGRFTISRDNAKNTVYFQMNSLKPVDTAVYYCNAAAGATTLVRPYVEFDYWGQGTQVNVSS | low polyreactivity
27 | QVQLVESGGGLVQAGGSLRLSCAASGRTFTFYAMGWYRQAPGKERELVAAISTRGGRTYYADSVKGRFTISRDNAKNTVYLQMNSLKPEDTAVYYCAARARRRYYYWGQGTQVTVSS | high polyreactivity
28 | QVQLVESGGGLVQAGGSLRLSCAASGRTFTFYTMGWYRQAPGKERELVARITGGGSTYYADSVKGRFTISRDNAKNTVYLQMNSLKPEDTAVYYCAAASGTKRLYRGTRGDYWGQGTQVTVSS | low polyreactivity
29 | QVQLVESGGGLVQAGGSLRLSCAASGRTFTGNAMGWYRQAPGKERELVAAISTSGTRTTYADSVKGRFTISRDNAKNPVYLQMTSLKPEDTAVYYCAALRKCLYRTYTYDYWGQGTQVTVSS | high polyreactivity
30 | QVQLVESGGGLVQAGGSLRLSCAASGRTFTGYVMGWYRQAPGKDRELVAGSSRRGGRTYYADSVKGRYTISRDNAKNTVYLQMNSLKPEDTEVYYCAAAVTSSDPYDYWGQGTQVTVSS | high polyreactivity
31 | QVQLVESGGGLVQAGGSLRLSCAASGRTFTHNTMGWYRQAPGKERELVAAISRSGASTYYADSVKGRFTISRDNAKNTVYLQMNSLKPEDTAVYYCNAYSRPHFGYVVGTKSRHGYWGQGTQVTVSS | high polyreactivity
32 | QVQLVESGGGLVQAGGSLRLSCAASGRTFTHNVMGWYRQAPGKERELVAGISSTGGSTYYADSVKGRFTISRDNAKNTVYLQMNSLKPEDTAVYYCAVIGYHYSAISPPSQTRQGYDYWGQGTQVTLSS | low polyreactivity
33 | QVQLVESGGGLVQAGGSLRLSCAASGRTFTHYAMGWYRQAPGKERELVAAISGRGGNTYYADSVKGRFTISRDNAKNTVYLQMNSLKPEDTAVYYCNTAYVAKGYGYWGQGTQVTVSS | high polyreactivity
34 | QVQLVESGGGLVQAGGSLRLSCAASGRTFTHYAMGWYRQAPGKERELVASISDGGRTHYADSVKGRFTISRDNAKNTVYLQMNSLKPEDTAVYYCATDRYPTRRYDYWGQGTQVTVSS | low polyreactivity
35 | QVQLVESGGGLVQAGGSLRLSCAASGRTFTIYAMGWYRQAPGKERELVAAISSSSGSTYYADSVKGRFTISRDNAKNTVYLQMNSLKPEDTAVYYCAARTTYRSSKRYGYWGQGTQVTVSS | high polyreactivity
36 | QVQLVESGGGLVQAGGSLRLSCAASGRTFTKYAKGWYRQAPGKERELVAAISNSGGSTFYADSVKGRFTISRDNAKNTVYLQMNSLKPEDTAVYYCAVDLGDTQYVPFDYWGQGTQVTVSS | low polyreactivity
37 | QVQLVESGGGLVQAGGSLRLSCAASGRTFTPYTMGWYRQAPGKEREFVAAITFRGGSTYYADSVKGRFTLSRDNAKNTVYLQMNSLKPEDTAVYYCNARGHGGWGTSMYYWGQGTQVTVSS | high polyreactivity
38 | QVQLVESGGGLVQAGGSLRLSCAASGRTFTRYAMGWSRQAPGKERELVAAITSTGSTYYADSVKGRFTISRDNAKNTVYLQMNSLKPEDTAVYYCNKVGIRYYYGYDYWGQGTQVTVSS | high polyreactivity
39 | QVQLVESGGGLVQAGGSLRLSCAASGRTFTRYSMGWYRQAPGKERELVATINSSGDRTYYADSVKGRFTISRDNAKNTVYLQMNSLKPEDTAVYYCAKRWSPYLYGYWGKGTQVTVSS | high polyreactivity
40 | QVQLVESGGGLVQAGGSLRLSCAASGRTFTRYVMGWYRQAPAKEREVVAAISSSGGTYYADSVKGRFTISRDNAKNTVYLQMNSLKPEDTAVYYCAVGSKLSRSYGYYYWGQGTQVTVSS | high polyreactivity
41 | QVQLVESGGGLVQAGGSLRLSCAASGRTFTSNAMRWYRQEPGNERELVAAISNRGTRTYYADSVKGRFTISRDNAKNTVYLQMHILKPEETAVYYCAASERDQRFKHYYWGLGTQVTVSS | high polyreactivity
42 | QVQLVESGGGLVQAGGSLRLSCAASGRTFTSYGMGWYRPEPGKERELVAAITRSTGGTYYADSVKGRFTISRDHAKNTVYLQMNSLKPEDTAVYYCNTGPLYSPFDYWGQGTQVTVSS | low polyreactivity
43 | QVQLVESGGGLVQAGGSLRLSCAASGRTFTTYAMGWYRQSPGKERELVAAISGSGGSTYYADSVKGRFTISRDNAKNTVYLQMNSLKPEDTAVYYCATAYYYHGGYYYPYDDYWGQGTQVTVSS | low polyreactivity
